Reference: patent US20140018304A1 (INDUSTRY ACADEMIC COOPERATION FOUNDATION YONSEI UNIVERSITY, published 2014)

Assays:
[1] = biological target: T1, GLRX3C, GLRX3 mutant composed of only the C-terminal domains, expressed from 3xFLAG-CMV14/H14C (Homo sapiens, UniProt O76003 134-335); experiment: co-expression in HeLa cells, precipitation with Ni-NTA resin, western blot
T1 construct: Deletion construct; not shown: C-terminal 3xFLAG tag of the 3xFLAG-CMV14 vector and the BamHI-site linker to it
T1 sequence: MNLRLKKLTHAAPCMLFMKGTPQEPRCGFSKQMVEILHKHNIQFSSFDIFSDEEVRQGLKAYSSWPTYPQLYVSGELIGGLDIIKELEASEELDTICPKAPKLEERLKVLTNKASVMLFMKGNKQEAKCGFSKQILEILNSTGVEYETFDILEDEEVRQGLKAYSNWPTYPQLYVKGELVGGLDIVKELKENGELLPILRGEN

[2] = biological target: T2, Bacterial Alkaline Phasphatase (BAP) (UniProt P00634 22-471 = phosphatase); experiment: as above
T2 construct: Control
T2 sequence (P00634 22-471): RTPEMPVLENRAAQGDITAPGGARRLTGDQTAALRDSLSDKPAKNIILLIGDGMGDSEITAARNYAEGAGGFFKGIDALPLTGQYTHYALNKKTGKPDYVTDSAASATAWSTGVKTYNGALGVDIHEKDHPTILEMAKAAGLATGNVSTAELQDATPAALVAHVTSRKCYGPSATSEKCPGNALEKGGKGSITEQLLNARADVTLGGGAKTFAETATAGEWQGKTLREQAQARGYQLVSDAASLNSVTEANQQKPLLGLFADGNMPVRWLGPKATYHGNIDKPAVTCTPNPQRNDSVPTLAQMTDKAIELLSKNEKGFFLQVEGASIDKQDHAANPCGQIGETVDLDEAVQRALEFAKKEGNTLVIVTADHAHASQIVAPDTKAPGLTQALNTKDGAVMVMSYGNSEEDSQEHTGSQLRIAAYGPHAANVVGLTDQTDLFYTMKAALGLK

B1: PAUF-Myc/His from pcDNA3.1(+)-PAUF-Myc/His (other, UniProt Q96DA0 17-172, looked up)
chain: GKMYGPGGGKYFSTTEDYDHEITGLRVSVGLLLVKSVQVKLGDSWDVKLGALGGNTQEVTLQPGEYITKVFVAFQAFLRGMVMYTSKDRYFYFGKLDGQISSAYPSQEGQVLVGIYGQYQLLGIKSIGFEWNYPLEEPTTEPPVNLTYSANSPVGR
notes: In vivo experiment: expressed in HeLa cells, total proteins and culture medium reacted with Ni-NTA resin; also called PAUF-His; His-PAUF; not shown: Myc/His tag of the pcDNA3.1(+)-Myc/His vector (Invitrogen)
B1: no binding [1]; no binding [2].
